The numbers were not newly measured in PMC6540754, which cites them from elsewhere.

In this data set the target is BfrB (Pseudomonas aeruginosa) (UniProt Q9HY79).
Chain of UniProt Q9HY79 (Q9HY79 whole entry): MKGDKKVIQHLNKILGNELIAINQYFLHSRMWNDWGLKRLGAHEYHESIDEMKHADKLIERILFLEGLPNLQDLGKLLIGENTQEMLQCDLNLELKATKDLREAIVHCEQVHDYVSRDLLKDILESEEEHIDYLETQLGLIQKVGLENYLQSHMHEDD

Consider Bfd (from UniProt Q9HY80), for which the Kd (usually the constant that tells how readily two partners part at equilibrium) was 3.4 µM.
